In patent US20240317834A1, “COMPOSITIONS AND METHODS FOR NEUROLOGICAL DISEASES” (CODA BIOTHERAPEUTICS, INC., priority 2020, published 2024):

Test system: Lenti-X 293T cells
Experiment: YFP fluorescence quenching anion reporter plate reader assay of engineered receptors stimulated with acetylcholine or a non-native ligand
Assay type: cell-based
Details: for percent quench of YFP fluorescence, 30 nM TC-6683: TC-6683 30 nM; for percent quench of YFP fluorescence, 300 nM TC-6683: TC-6683 300 nM; for percent quench of YFP fluorescence, 3 uM TC-6683: TC-6683 3 uM; for percent quench of YFP fluorescence, 30 uM TC-6683: TC-6683 30 uM; for percent quench of YFP fluorescence, 100 uM TC-6683: TC-6683 100 uM; for percent quench of YFP fluorescence, 10 uM ach: acetylcholine 10 uM; for percent quench of YFP fluorescence, 100 uM ach: acetylcholine 100 uM; for percent quench of YFP fluorescence, 1 mM ach: acetylcholine 1 mM; for percent quench of YFP fluorescence, 3 mM ach: acetylcholine 3 mM
Summary of the method: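 YFP quench was followed for about 1 min 43 s after ligand delivered in iodide-based ECS, pH 7.2. Values are end-of-read fluorescence (last 10 s) divided by the pre-ligand baseline (15 s). Cells were LX293T, transfected with receptor DNA a day before the assay.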

B1: CODA337: engineered chimeric LGIC receptor, L131N in SEQ ID NO: 33 (protein)
chain: MRCSPGGVWLALAASLLHVSLQGEFQRKLYKELVKNYNPLERPVANDSQPLTVYFSLSLLQIMDVDEKNQVLTTNIWLQMSWTDHYLQWNVSEYPGVKTVRFPDGQIWKPDILLYNSADERFDATFHTNVNVNSSGHCQYLPPGIFKSSCPMDLKNFPMDVQTCKLKFGSWSYGGWSLDLQMQEADISGYIPNGEWDLVGIPGKRSERFYECCKEPYPDVTFTVTMRRRMGYYLIQMYIPSLLIVILSWISFWINMDAAPARVGLGITTVLTMTTQSSGSRASLPKVSYVKAIDIWMAVCLLFVFSALLEYAAVNFVSRQHKELLRFRRKRRHHKSPMLNLFQEDEAGEGRFNFSAYGMGPACLQAKDGISVKGANNSNTTNPPPAPSKSPEEMRKLFIQRAKKIDKISRIGFPMAFLIFNMFYWIIYKIVRREDVHNQ
modifications: synthetic sequence of chimeric LGIC
YFP fluorescence quenching using CNL001 (1 nM CNL001, first column): 76.917%
YFP fluorescence quenching using CNL001 (1 nM CNL001, second column): 79.554%
YFP fluorescence quenching using TC-5619/Bradanicline (3 nM brd): 71.02%
YFP fluorescence quenching using Varenicline (3 nM var, first column): 3.093
YFP fluorescence quenching using Varenicline (3 nM var, second column): 12.327
YFP fluorescence quenching using CNL001 (10 nM CNL001, first column): 79.479%
YFP fluorescence quenching using CNL001 (10 nM CNL001, second column): 79.506%
YFP fluorescence quenching using TC-5619/Bradanicline (30 nM brd): 78.43%
YFP fluorescence quenching using Facinicline (30 nM fac): 82.25
YFP fluorescence quenching using Varenicline (30 nM var, first column): 77.097
YFP fluorescence quenching using Varenicline (30 nM var, second column): 77.653
YFP fluorescence quenching using CNL001 (50 nM CNL001, first column): 81.465%
YFP fluorescence quenching using CNL001 (50 nM CNL001, second column): 81.297%
YFP fluorescence quenching using ABT-126 (50 nM abt): −11.64%
YFP fluorescence quenching using CNL001 (100 nM CNL001, first column): 82.619%
YFP fluorescence quenching using CNL001 (100 nM CNL001, second column): 81.722%
YFP fluorescence quenching using CNL002 (100 nM CNL002): 76.37%
YFP fluorescence quenching using ABT-126 (100 nM abt): 34.79%
YFP fluorescence quenching using AZD-0328 (100 nM azd0328): 82.1%
YFP fluorescence quenching using ABT-126 (300 nM abt): 60.08%
YFP fluorescence quenching using AZD-0328 (300 nM azd0328): 82.52%
YFP fluorescence quenching using TC-5619/Bradanicline (300 nM brd): 77.12%
YFP fluorescence quenching using Facinicline (300 nM fac): 83.59
YFP fluorescence quenching using Varenicline (300 nM var, first column): 79.446
YFP fluorescence quenching using Varenicline (300 nM var, second column): 79.998
YFP fluorescence quenching using Varenicline (500 nM var, first column): 80.691
YFP fluorescence quenching using Varenicline (500 nM var, second column): 80.309
YFP fluorescence quenching using CNL001 (1 uM CNL001, first column): 81.96%
YFP fluorescence quenching using CNL001 (1 uM CNL001, second column): 81.773%
YFP fluorescence quenching using CNL002 (1 uM CNL002): 80.18%
YFP fluorescence quenching using ABT-126 (1 uM abt): 65.99%
YFP fluorescence quenching using TC-6987 (1 uM tc6987): 79.06
YFP fluorescence quenching using Varenicline (1 uM var, first column): 80.258
YFP fluorescence quenching using Varenicline (1 uM var, second column): 79.509
YFP fluorescence quenching using TC-6987 (10 uM tc6987): 82.36
YFP fluorescence quenching using CNL002 (30 uM CNL002): 80.93%
YFP fluorescence quenching using AZD-0328 (30 uM azd0328): 82.32%
YFP fluorescence quenching using Facinicline (30 uM fac): 82.82
YFP fluorescence quenching using TC-6987 (500 uM tc6987): 80.19
percent quench of YFP fluorescence, 30 nM TC-6683: −11.51%
percent quench of YFP fluorescence, 300 nM TC-6683: −13.17%
percent quench of YFP fluorescence, 3 uM TC-6683: −5.46%
percent quench of YFP fluorescence, 30 uM TC-6683: 8.53%
percent quench of YFP fluorescence, 100 uM TC-6683: 14.41%
percent quench of YFP fluorescence, 10 uM ach: 28.32%
percent quench of YFP fluorescence, 100 uM ach: 81.8%
percent quench of YFP fluorescence, 1 mM ach: 71.22%
percent quench of YFP fluorescence, 3 mM ach: 73.7%

B2: CODA945: engineered chimeric LGIC receptor, Q139E in SEQ ID NO: 33 (protein)
chain: MRCSPGGVWLALAASLLHVSLQGEFQRKLYKELVKNYNPLERPVANDSQPLTVYFSLSLLQIMDVDEKNQVLTTNIWLQMSWTDHYLQWNVSEYPGVKTVRFPDGQIWKPDILLYNSADERFDATFHTNVLVNSSGHCEYLPPGIFKSSCPMDLKNFPMDVQTCKLKFGSWSYGGWSLDLQMQEADISGYIPNGEWDLVGIPGKRSERFYECCKEPYPDVTFTVTMRRRMGYYLIQMYIPSLLIVILSWISFWINMDAAPARVGLGITTVLTMTTQSSGSRASLPKVSYVKAIDIWMAVCLLFVFSALLEYAAVNFVSRQHKELLRFRRKRRHHKSPMLNLFQEDEAGEGRFNFSAYGMGPACLQAKDGISVKGANNSNTTNPPPAPSKSPEEMRKLFIQRAKKIDKISRIGFPMAFLIFNMFYWIIYKIVRREDVHNQ
modifications: synthetic sequence of chimeric LGIC
YFP fluorescence quenching using CNL001 (1 nM CNL001, first column): 6.65%
YFP fluorescence quenching using CNL001 (1 nM CNL001, second column): 13.512%
YFP fluorescence quenching using TC-5619/Bradanicline (3 nM brd): 14.15%
YFP fluorescence quenching using Varenicline (3 nM var, first column): 8.207
YFP fluorescence quenching using Varenicline (3 nM var, second column): 7.835
YFP fluorescence quenching using CNL001 (10 nM CNL001, first column): 78.678%
YFP fluorescence quenching using CNL001 (10 nM CNL001, second column): 82.723%
YFP fluorescence quenching using TC-5619/Bradanicline (30 nM brd): 78.18%
YFP fluorescence quenching using Facinicline (30 nM fac): −7.16
YFP fluorescence quenching using Varenicline (30 nM var, first column): 9.509
YFP fluorescence quenching using Varenicline (30 nM var, second column): 10.204
YFP fluorescence quenching using CNL001 (50 nM CNL001, first column): 84.91%
YFP fluorescence quenching using CNL001 (50 nM CNL001, second column): 84.849%
YFP fluorescence quenching using ABT-126 (50 nM abt): −8.27%
YFP fluorescence quenching using CNL001 (100 nM CNL001, first column): 85.046%
YFP fluorescence quenching using CNL001 (100 nM CNL001, second column): 84.642%
YFP fluorescence quenching using CNL002 (100 nM CNL002): 60.5%
YFP fluorescence quenching using ABT-126 (100 nM abt): 4.76%
YFP fluorescence quenching using AZD-0328 (100 nM azd0328): −5.79%
YFP fluorescence quenching using ABT-126 (300 nM abt): 30.88%
YFP fluorescence quenching using AZD-0328 (300 nM azd0328): 58.47%
YFP fluorescence quenching using TC-5619/Bradanicline (300 nM brd): 76.8%
YFP fluorescence quenching using Facinicline (300 nM fac): 71.17
YFP fluorescence quenching using Varenicline (300 nM var, first column): 9.818
YFP fluorescence quenching using Varenicline (300 nM var, second column): 12.539
YFP fluorescence quenching using Varenicline (500 nM var, first column): 16.762
YFP fluorescence quenching using Varenicline (500 nM var, second column): 15.21
YFP fluorescence quenching using CNL001 (1 uM CNL001, first column): 85.493%
YFP fluorescence quenching using CNL001 (1 uM CNL001, second column): 86.071%
YFP fluorescence quenching using CNL002 (1 uM CNL002): 75.41%
YFP fluorescence quenching using ABT-126 (1 uM abt): 60.66%
YFP fluorescence quenching using TC-6987 (1 uM tc6987): −0.97
YFP fluorescence quenching using Varenicline (1 uM var, first column): 48.292
YFP fluorescence quenching using Varenicline (1 uM var, second column): 54.096
YFP fluorescence quenching using TC-6987 (10 uM tc6987): 21.53
YFP fluorescence quenching using CNL002 (30 uM CNL002): 77.46%
YFP fluorescence quenching using AZD-0328 (30 uM azd0328): 66.57%
YFP fluorescence quenching using Facinicline (30 uM fac): 72.14
YFP fluorescence quenching using TC-6987 (500 uM tc6987): 7.39
percent quench of YFP fluorescence, 30 nM TC-6683: −26.47%
percent quench of YFP fluorescence, 300 nM TC-6683: −18.62%
percent quench of YFP fluorescence, 3 uM TC-6683: −13.39%
percent quench of YFP fluorescence, 30 uM TC-6683: −16.6%
percent quench of YFP fluorescence, 100 uM TC-6683: −12.89%
percent quench of YFP fluorescence, 10 uM ach: −1.25%
percent quench of YFP fluorescence, 100 uM ach: 71.21%
percent quench of YFP fluorescence, 1 mM ach: 71.79%
percent quench of YFP fluorescence, 3 mM ach: 76.04%
